We go through 24 sequences from the Immune Epitope Database (IEDB).

pIC50: −log10 of the molar value.

For one test, the target named is HLA-A*02:01. The experiment in a line: IEDB peptide-MHC binding, purified MHC/competitive/radioactivity; ≥ and ≤ were set here for values at or beyond the usual limits of such assays. The note with it: source organism: Bordetella pertussis.
Turning to EGGKLRGKD, the pIC50 was at most 4.11.
In the case of IIKDAPPGA, the negative-log IC50 (pIC50) is 4.81.
Regarding IIQEFAADL, the pIC50 was 5.38.
On the same count and under the same terms, under TLSSAHGNV stands 4.31; under VKLGGVYEA, 5.02.

The target of a further test is HLA-B*07:02. The description is as above. The note with it: source organism: Bordetella pertussis.
With MPKAPELDL, the negative-log IC50 (pIC50) is 4.68.
For the sequence RPSVNGGRI, the negative-log IC50 (pIC50) is 6.46.

In another test the target is HLA-B*35:01. The test is described as above. The conditions noted are these: source organism: Bordetella pertussis.
Turning to GEAMVLVYY, the negative logarithm of the IC50 (pIC50) was 4.44.
For the sequence ILAGALATY, the pIC50 is 5.37.
With LAGSGLFRM, the negative logarithm of the IC50 (pIC50) was 6.12.
As for MAPVMGACM, the pIC50 is 5.30.

A further test has as its target HLA-B*44:03. The test is described as above. The note with it: source organism: Bordetella pertussis.
As for AEIAFYPKE, the negative logarithm of the IC50 (pIC50) was 6.32.
As for AQVTVAGRY, the negative logarithm of the IC50 (pIC50) was 5.49.
RETFCITTI: the pIC50 was 6.67.
On to TEAQGVQVR, for which the pIC50 is 4.70.

For a further test, the target named is HLA-B*53:01. Described as above. The note with it: source organism: Bordetella pertussis.
Regarding FPTRTTAPG, the pIC50 was 6.05.
For HANHYGTRI, the pIC50 is 4.28.
On to TAPVTSPAW, for which the negative logarithm of the IC50 (pIC50) is 5.36.

The next test addresses HLA-B*57:01. The test is described as above. The note with it: source organism: Bordetella pertussis.
For the sequence AARVAGDNY, the negative logarithm of the IC50 (pIC50) was 4.49.
With KATVTTVQV, the pIC50 is 4.45.
For RARRALRQD, the pIC50 is 4.87.
Same read-out and setting: under RRFTHADGW stands 4.25.
As for RSGARATSL, the pIC50 was 4.66.
Still for that read-out and setting: under SVKVAKKLF stands at most 4.15.
